Experiment [1] deals with T1, TLR4 (Homo sapiens, UniProt O00206+Q9Y6Y9).
T1 construct: alginate cultures of human chondrocytes from healthy volunteers were supplied by Articular Engineering, LLC; host or cells: primary human chondrocytes in alginate culture (healthy volunteers; osteoarthritis patients)
Conditions: positive control; stated as known; cited from earlier work.

Experiment [2] addresses T1, TLR4. In words: 35S incorporation into S-GAG in alginate cultures of human chondrocytes from healthy volunteers. In kind it is cell-based. On the procedure: For these experiments, alginate cultures of human chondrocytes from healthy volunteers were supplied by Articular Engineering, LLC (Northbrook, Ill.) and were maintained as directed by the supplier. “Control” chondrocytes were untreated. “LPS” treated chondrocytes were treated with LPS at a concentration of 1 μg/ml in the media for three days starting at Day 2. “LPS+polymixin B” treated chondrocytes were treated for 1 hour with the […] polymixin B, which is a TLR4 antagonist, at a concentration of 20 μg/ml followed by treatment with the TLR4 receptor agonist LPS at a concentration of 1 μg/ml in the media for three days starting at Day 2. “LPS+TLR4-ECD” treated chondrocytes were treated starting at Day 0 with the TLR4 antagonist TLR4-ECD at a concentration in the media of 50 μg/ml followed by treatment with LPS at a concentration of 1 μg/ml in the media for three days starting at Day 2. TLR4-ECD is a TLR4 receptor antagonist comprising the extracellular domain of hTLR4A and the Fc domain of an IgG1 isotype antibody. TLR4-ECD has the amino acid sequence shown in SEQ ID NO: 4 and is encoded by the cDNA having the nucleic acid sequence shown in SEQ ID NO: 3. […] On Day 5 alginate bead chondrocyte cell cultures were ^35S labelled overnight and ^35S incorporation into S-GAG (sulfated glycosaminoglycan) was then determined as described by Bobacz et al. 56 Arthritis. […]

Experiment [3] concerns the target T1, TLR4. As to the kind of experiment: 35S incorporation into S-GAG in alginate cultures of human chondrocytes from osteoarthritis patients. In kind it is cell-based. On the procedure:
For these experiments, alginate cultures of human chondrocytes from healthy volunteers were supplied by Articular Engineering, LLC (Northbrook, Ill.) and were maintained as directed by the supplier. “Control” chondrocytes were untreated. “LPS” treated chondrocytes were treated with LPS at a concentration of 1 μg/ml in the media for three days starting at Day 2. “LPS+polymixin B” treated chondrocytes were treated for 1 hour with the […] polymixin B, which is a TLR4 antagonist, at a concentration of 20 μg/ml followed by treatment with the TLR4 receptor agonist LPS at a concentration of 1 μg/ml in the media for three days starting at Day 2. […] On Day 5 alginate bead chondrocyte cell cultures were ^35S labelled overnight and ^35S incorporation into S-GAG (sulfated glycosaminoglycan) was then determined as described by Bobacz et al. 56 Arthritis. […]
For these experiments, alginate cultures of human chondrocytes from osteoarthritis patients were supplied by Articular Engineering, LLC (Northbrook, Ill.) and were maintained as directed by the supplier. […] At Day 5 alginate bead chondrocyte cell cultures were ^35S labelled overnight and ^35S incorporation into S-GAG (sulfated glycosaminoglycan) was then determined as described by Bobacz et al. 56 Arthritis. […]

T1 sequence (O00206 24-839): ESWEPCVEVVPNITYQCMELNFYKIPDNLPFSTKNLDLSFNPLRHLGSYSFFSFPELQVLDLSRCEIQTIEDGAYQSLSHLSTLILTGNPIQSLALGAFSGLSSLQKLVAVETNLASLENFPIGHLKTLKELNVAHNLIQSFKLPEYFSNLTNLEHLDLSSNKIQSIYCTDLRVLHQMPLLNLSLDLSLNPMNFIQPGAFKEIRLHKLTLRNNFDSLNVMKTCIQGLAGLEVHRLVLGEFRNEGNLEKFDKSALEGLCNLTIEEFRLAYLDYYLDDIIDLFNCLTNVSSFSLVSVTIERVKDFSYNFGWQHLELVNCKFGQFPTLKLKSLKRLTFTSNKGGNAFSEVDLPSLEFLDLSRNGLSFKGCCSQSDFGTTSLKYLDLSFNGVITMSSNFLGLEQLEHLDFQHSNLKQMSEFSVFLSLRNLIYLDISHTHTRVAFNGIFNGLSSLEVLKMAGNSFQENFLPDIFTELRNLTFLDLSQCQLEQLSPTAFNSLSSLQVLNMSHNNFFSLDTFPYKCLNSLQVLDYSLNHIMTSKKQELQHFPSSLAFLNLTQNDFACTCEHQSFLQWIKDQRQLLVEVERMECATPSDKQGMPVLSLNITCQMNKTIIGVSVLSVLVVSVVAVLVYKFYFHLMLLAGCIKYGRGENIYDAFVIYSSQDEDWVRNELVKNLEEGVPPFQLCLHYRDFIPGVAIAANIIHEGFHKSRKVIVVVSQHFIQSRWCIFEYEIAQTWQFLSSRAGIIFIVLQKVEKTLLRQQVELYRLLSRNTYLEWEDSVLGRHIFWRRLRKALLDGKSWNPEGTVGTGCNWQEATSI
T1 sequence (Q9Y6Y9 17-160 limits assumed): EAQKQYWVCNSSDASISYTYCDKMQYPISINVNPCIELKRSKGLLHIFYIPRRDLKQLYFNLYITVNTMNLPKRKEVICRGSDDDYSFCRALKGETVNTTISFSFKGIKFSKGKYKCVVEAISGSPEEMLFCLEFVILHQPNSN

In the case of “IGF1: Insulin-like Growth Factor 1, used as a positive control”, the “sGAG synthesis by human chondrocytes” value with TLR4 [1] is “stimulate sGAG synthesis”.

As to “hTLR4-ECD: TLR4 receptor antagonist comprising the extracellular domain of hTLR4A and the Fc domain of an IgG1 isotype antibody; preparations contained approximately 25% MD2”, the S-GAG synthesis entry with TLR4 [2] (hTLR4-ECD 50 μg/ml from Day 0 + LPS 1 μg/ml from Day 2, relative to LPS alone (FIG. 18)) is “increased S-GAG synthesis relative to chondrocytes treated with LPS alone”; in the experiment with TLR4 [2] (hTLR4-ECD alone 50 μg/ml from Day 0, relative to LPS alone (FIG. 18)), “increased S-GAG synthesis relative to chondrocytes treated with LPS alone”; with TLR4 [3] (hTLR4-ECD 50 μg/ml from Day 0 + LPS 1 μg/ml from Day 2, relative to LPS alone (FIG. 19)), “increased S-GAG synthesis relative to chondrocytes from osteoarthritis patients treated with LPS alone”; with TLR4 [3] (hTLR4-ECD alone 50 μg/ml from Day 0, relative to LPS alone (FIG. 19)) it was “increased S-GAG synthesis relative to chondrocytes from osteoarthritis patients treated with LPS alone”.

Source of the values: US20090136509A1, “Use of Toll-Like Receptor 4 Antagonists for the Treatment or Prevention of Osteoarthritic Conditions” (priority 2007, published 2009).
